From the supplement of paper PMC9112550, “Optimization of the antimicrobial peptide Bac7 by deep mutational scanning” (BMC Biology, 2022)

system: Escherichia coli TOP10; assay: shrunken log2 fold change of peptide-encoding DNA abundance (4.5 h post-induction vs induction); higher = less antimicrobial activity (less host growth inhibition); conditions: time post-induction: 4.5 h; library: site-saturation at positions 5, 18, 19, 20
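Further: peptides expressed intracellularly from a pBAD plasmid library in pooled LB shake-flask culture, induced with 0.3% L-arabinose, DNA abundance read by NGS, three biological replicates, DESeq2 with apeglm shrinkage.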

Sequence | shrunken log2 fold change
RRIRGRPPRLPRPRPRPETSPRP | 1.68
RRIRDRPPRLPRPRPRPKRIPRP | 0.133
RRIRGRPPRLPRPRPRPHVAPRP | 0.724
RRIRFRPPRLPRPRPRPANDPRP | 0.0325
RRIRNRPPRLPRPRPRPNLSPRP | -0.0459
RRIRNRPPRLPRPRPRPTCQPRP | 0.0956
RRIRHRPPRLPRPRPRPSLNPRP | -0.51
RRIRWRPPRLPRPRPRPLLTPRP | 0.324
RRIRIRPPRLPRPRPRPSPWPRP | -0.34
RRIRTRPPRLPRPRPRPPWIPRP | 0.161
RRIRRRPPRLPRPRPRPERSPRP | 0.0187
RRIRGRPPRLPRPRPRPQWGPRP | 0.376
RRIRSRPPRLPRPRPRPLDAPRP | 0.259
RRIRVRPPRLPRPRPRPYFDPRP | -0.609
RRIRSRPPRLPRPRPRPPASPRP | 0.694
RRIRKRPPRLPRPRPRPASRPRP | 0.519
RRIRKRPPRLPRPRPRPCTLPRP | 0.0143
RRIRARPPRLPRPRPRPNFPPRP | -0.0362
RRIRPRPPRLPRPRPRPRQLPRP | 0.247
RRIRLRPPRLPRPRPRPISPPRP | -0.333
RRIRGRPPRLPRPRPRPKSRPRP | 0.0451
RRIRHRPPRLPRPRPRPHPMPRP | -0.076
RRIRHRPPRLPRPRPRPWCYPRP | -0.297
RRIRNRPPRLPRPRPRPLYVPRP | -0.641
RRIRCRPPRLPRPRPRPWHFPRP | -0.422

Sequence | shrunken log2 fold change
RRIRGRPPRLPRPRPRPQPPPRP | 0.998
RRIRGRPPRLPRPRPRPQFQPRP | 0.0768
RRIRCRPPRLPRPRPRPWSCPRP | -0.739
RRIRYRPPRLPRPRPRPLIIPRP | -1.2
RRIRWRPPRLPRPRPRPRLGPRP | 0.252
RRIRARPPRLPRPRPRPAPLPRP | 0.367
RRIRKRPPRLPRPRPRPECNPRP | 0.0503
RRIRIRPPRLPRPRPRPHFAPRP | -0.135
RRIRFRPPRLPRPRPRPYWWPRP | -0.198
RRIRCRPPRLPRPRPRPKLFPRP | 0.132
RRIRSRPPRLPRPRPRPNFMPRP | -0.43
RRIRFRPPRLPRPRPRPTPVPRP | 0.706
RRIRQRPPRLPRPRPRPAENPRP | 0.0325
RRIRIRPPRLPRPRPRPPVCPRP | 0.108
RRIRKRPPRLPRPRPRPAIAPRP | 0.802
RRIRIRPPRLPRPRPRPHNFPRP | -0.0684
RRIRTRPPRLPRPRPRPMEQPRP | -0.189
RRIRRRPPRLPRPRPRPCNNPRP | -0.368
RRIRTRPPRLPRPRPRPETDPRP | -0.0144
RRIRCRPPRLPRPRPRPWIAPRP | -0.256
RRIRSRPPRLPRPRPRPNSDPRP | -0.0183
RRIRVRPPRLPRPRPRPRFCPRP | -0.0488
RRIRKRPPRLPRPRPRPMKLPRP | 0.0347
RRIRQRPPRLPRPRPRPPLYPRP | 0.233
RRIRVRPPRLPRPRPRPSFPPRP | -0.627

Sequence | shrunken log2 fold change
RRIRERPPRLPRPRPRPWGIPRP | -0.234
RRIRARPPRLPRPRPRPRIDPRP | 0.74
RRIRYRPPRLPRPRPRPLQGPRP | -0.0139
RRIRERPPRLPRPRPRPQVRPRP | -0.0385
RRIRPRPPRLPRPRPRPYTQPRP | -0.608
RRIRIRPPRLPRPRPRPTTYPRP | -0.868
RRIRFRPPRLPRPRPRPIDIPRP | 0.0578
RRIRMRPPRLPRPRPRPKEPPRP | -0.074
RRIRIRPPRLPRPRPRPPNQPRP | -0.0959
RRIRWRPPRLPRPRPRPNLMPRP | -0.227
RRIRDRPPRLPRPRPRPFGIPRP | 0.0183
RRIRDRPPRLPRPRPRPEYGPRP | 0.305
RRIRPRPPRLPRPRPRPYWTPRP | -0.68
RRIRQRPPRLPRPRPRPTFIPRP | -0.0494
RRIRQRPPRLPRPRPRPVNDPRP | -0.0199
RRIRVRPPRLPRPRPRPNMHPRP | -0.332
RRIRRRPPRLPRPRPRPRSTPRP | 0.36
RRIRIRPPRLPRPRPRPMSFPRP | -0.178
RRIRFRPPRLPRPRPRPSWGPRP | -0.243
RRIRIRPPRLPRPRPRPESEPRP | -0.0338
RRIRHRPPRLPRPRPRPTLCPRP | -0.134
RRIRKRPPRLPRPRPRPHYLPRP | 0.0182
RRIRHRPPRLPRPRPRPYFRPRP | -0.296
RRIRDRPPRLPRPRPRPECRPRP | 1.03
RRIRQRPPRLPRPRPRPPACPRP | 0.162

Sequence | shrunken log2 fold change
RRIRPRPPRLPRPRPRPTEAPRP | -0.258
RRIRNRPPRLPRPRPRPYRSPRP | -0.0179
RRIRIRPPRLPRPRPRPYYQPRP | -0.296
RRIRHRPPRLPRPRPRPLFLPRP | -0.612
RRIRTRPPRLPRPRPRPGFWPRP | 0.199
RRIRFRPPRLPRPRPRPYMQPRP | -0.68
RRIRPRPPRLPRPRPRPVFDPRP | 0.342
RRIRMRPPRLPRPRPRPYRKPRP | -0.432
RRIRDRPPRLPRPRPRPWEVPRP | -0.0135
RRIRQRPPRLPRPRPRPDHKPRP | -0.0609
RRIRKRPPRLPRPRPRPGRQPRP | 0.143
RRIRNRPPRLPRPRPRPEYVPRP | -0.05
RRIRMRPPRLPRPRPRPQCPPRP | -0.181
RRIRGRPPRLPRPRPRPTNVPRP | 0.141
RRIRNRPPRLPRPRPRPHIRPRP | -0.0139
RRIRVRPPRLPRPRPRPLCEPRP | -0.131
RRIRMRPPRLPRPRPRPEWQPRP | 0.23
RRIRRRPPRLPRPRPRPFQLPRP | 0.0918
RRIRARPPRLPRPRPRPVYYPRP | -0.518
RRIRFRPPRLPRPRPRPPNYPRP | -0.023
RRIRSRPPRLPRPRPRPTPSPRP | 0.376
RRIRTRPPRLPRPRPRPGKYPRP | -0.755
RRIRDRPPRLPRPRPRPFGAPRP | 0.191
RRIRKRPPRLPRPRPRPPEKPRP | 0.00179
RRIRNRPPRLPRPRPRPDRDPRP | 0.0416

Sequence | shrunken log2 fold change
RRIRLRPPRLPRPRPRPCSNPRP | -0.47
RRIRWRPPRLPRPRPRPNMQPRP | -0.0262
RRIRRRPPRLPRPRPRPTPAPRP | 1.55
RRIRFRPPRLPRPRPRPDASPRP | 0.146
RRIRARPPRLPRPRPRPHVWPRP | 0.29
RRIRRRPPRLPRPRPRPPIWPRP | 2.59
RRIRARPPRLPRPRPRPGWSPRP | 0.57
RRIRTRPPRLPRPRPRPQGYPRP | -0.943
RRIRMRPPRLPRPRPRPGPRPRP | 1.46
RRIRPRPPRLPRPRPRPGETPRP | 0.117
RRIRNRPPRLPRPRPRPGKYPRP | -0.117
RRIRMRPPRLPRPRPRPYFEPRP | -0.318
RRIRNRPPRLPRPRPRPNCTPRP | -0.191
RRIRDRPPRLPRPRPRPAYLPRP | -0.011
RRIRGRPPRLPRPRPRPQKPPRP | 0.0894
RRIRVRPPRLPRPRPRPDHVPRP | -0.0193
RRIRIRPPRLPRPRPRPTRTPRP | 0.22
RRIRGRPPRLPRPRPRPMFLPRP | -0.0125
RRIRCRPPRLPRPRPRPCWSPRP | -0.352
RRIRYRPPRLPRPRPRPIHKPRP | -0.6
RRIRWRPPRLPRPRPRPYKNPRP | -0.61
RRIRQRPPRLPRPRPRPKCNPRP | -0.472
RRIRMRPPRLPRPRPRPNPWPRP | 0.123
RRIRIRPPRLPRPRPRPPGEPRP | 0.0604
RRIRTRPPRLPRPRPRPPLCPRP | 0.0694

Sequence | shrunken log2 fold change
RRIRTRPPRLPRPRPRPTVRPRP | 2.09
RRIRPRPPRLPRPRPRPRFDPRP | 0.197
RRIRFRPPRLPRPRPRPQAYPRP | -0.0572
RRIRGRPPRLPRPRPRPQEQPRP | 0.458
RRIRCRPPRLPRPRPRPCTGPRP | -0.307
RRIRARPPRLPRPRPRPDCTPRP | 0.27
RRIRERPPRLPRPRPRPQCGPRP | -0.43
RRIRQRPPRLPRPRPRPAGQPRP | -0.143
RRIRYRPPRLPRPRPRPQPGPRP | -0.0846
RRIRVRPPRLPRPRPRPYLLPRP | -0.357
RRIRYRPPRLPRPRPRPSCQPRP | -0.296
RRIRQRPPRLPRPRPRPVVIPRP | -0.292
RRIRSRPPRLPRPRPRPVRVPRP | 0.743
RRIRRRPPRLPRPRPRPGCSPRP | 0.344
RRIRIRPPRLPRPRPRPYCFPRP | -0.834
RRIRHRPPRLPRPRPRPGLWPRP | 0.0565
RRIRWRPPRLPRPRPRPNMRPRP | 0.0208
RRIRARPPRLPRPRPRPSSKPRP | -0.134
RRIRMRPPRLPRPRPRPQYLPRP | -0.0275
RRIRKRPPRLPRPRPRPWDFPRP | 0.953
RRIRGRPPRLPRPRPRPSCKPRP | 0.319
RRIRCRPPRLPRPRPRPVSVPRP | -0.0739
RRIRWRPPRLPRPRPRPFEFPRP | -0.182
RRIRLRPPRLPRPRPRPLGWPRP | 0.584
RRIRERPPRLPRPRPRPRGSPRP | 0.147
